Results published in paper doi:10.1101/2021.05.24.445519 (bioRxiv, 2021).

Target: the molecule itself
Assay: crystal structure

B1: alanine:glyoxylate aminotransferase 1, minor allele (AGT-Mi), purified recombinant (enzyme, human)
chain: MASHKLLVTPLKALLKPLSIPNQLLLGPGPSNLPPRIMAAGGLQMIGSMSKDMYQIMDEIKEGIQYVFQTRNPLTLVISGSGHCALEAALVNVLEPGDSFLVGANGIWGQRAVDIGERIGARVHPMTKDPGGHYTLQEVEEGLAQHKPVLLFLTHGESSTGVLQPLDGFGELCHRYKCLLLVDSVASLGGTPLYMDRQGIDILYSGSQKALNAPPGTSLISFSDKAKKKMYSRKTKPFSFYLDIKWLANFWGCDDQPRMYHHTIPVISLYSLRESLALIAEQGLENSWRQHREAAAYLHGRLQALGLQLFVKDPALRLPTVTTVAVPAGYDWRDIVSYVMDHFDIEIMGGLGPSTGKVLRIGLLGCNATRENVDRVTEALRAALQHCPKKKL
B1: binds.
